Columns and labels:
[1] = molecular target: T1, Polyhistidine (His) tagged ERα ligand binding domain (amino acids 302–552) (UniProt P03372 302-552); experiment: peptide or protein array; MARCoNI, PamChip peptide microarray: coregulator motif peptides immobilised; His-ERα-LBD 10 nM (partly purified) in solution with E2 (10^-12 to 10^-5 M), detected with penta-His Alexa Fluor 488 antibody 25 nM; 20 °C; 20 mM Tris-HCl pH 7.5, 500 mM NaCl, 0.2% BSA, 0.05% Tween 20, 2% DMSO; conditions: both partners purified
T1 construct: Detected on the array by a penta-His Alexa Fluor 488 antibody; Always tested with E2, DES or solvent (2% DMSO); also called ERα-LBD; source: partly purified from Escherichia coli (Qiagen)
T1 sequence (looked up): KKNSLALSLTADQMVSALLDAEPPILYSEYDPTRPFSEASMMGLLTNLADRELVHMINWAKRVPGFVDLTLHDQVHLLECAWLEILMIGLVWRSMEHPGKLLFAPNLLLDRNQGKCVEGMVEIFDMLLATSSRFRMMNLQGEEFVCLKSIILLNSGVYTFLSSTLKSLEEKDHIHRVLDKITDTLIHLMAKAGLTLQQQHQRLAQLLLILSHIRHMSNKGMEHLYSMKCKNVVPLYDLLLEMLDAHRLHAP

[2] = molecular target: T1, Polyhistidine (His) tagged ERα ligand …; experiment: as above; conditions: both partners purified; remark: listed apart in the source

B1: NCOA1_1421_1441 (peptide, UniProt Q15788 1421-1441, looked up)
peptide: TSGPQTPQAQQKSLLQQLLTE
notes: Immobilised on the PamChip; source: bought: PamChip peptide microarray, PamGene International BV
- binding result [1]: binds

B2: CBP_2055_2077 (peptide, UniProt Q92793 2055-2077, looked up)
peptide: SVQPPRSISPSALQDLLRTLKSP
notes: as for B1
- binding result [2]: binds

B3: NCOR1_662_684_C662S (peptide, UniProt O75376 662-684, looked up)
peptide: SKNFYFNYKRRHNLDNLLQQHKQ
notes: as for B1
- binding result [2]: binds

B4: NRIP1_173_195 (peptide, UniProt P48552 173-195, looked up)
peptide: KDLRCYGVASSHLKTLLKKSKVK
notes: as for B1
- binding result [2]: binds

B5: NRIP1_173_195_C177S (peptide, UniProt P48552 173-195, looked up)
peptide: KDLRSYGVASSHLKTLLKKSKVK
notes: as for B1
- binding result [2]: binds

B6: TIF1A_373_395_C394S (peptide, UniProt O15164 373-395, looked up)
peptide: TALLYSKRLITYRLRHLLRARSD
notes: as for B1
- binding result [2]: binds

B7: TRIP4_149_171_C171S (peptide, UniProt Q15650 149-171, looked up)
peptide: FVNLYTREGQDRLAVLLPGRHPS
notes: as for B1
- binding result [2]: binds

B8: NCOA1_677_700 (peptide, UniProt Q15788 677-700, looked up)
peptide: PSSHSSLTERHKILHRLLQEGSPS
notes: as for B1
- binding result [1]: binds

B9: NCOA2_628_651 (peptide, UniProt Q15596 628-651, looked up)
peptide: GQSRLHDSKGQTKLLQLLTTKSDQ
notes: as for B1
- binding result [1]: binds

B10: ANDR_10_32 (peptide, UniProt P10275 10-32, looked up)
peptide: VYPRPPSKTYRGAFQNLFQSVRE
notes: Immobilised on the PamChip; also called Androgen receptor–related coregulator motif; source: bought: PamChip peptide microarray, PamGene International BV
- binding result [1]: binds
